Laboratory results as given in doi:10.1101/2020.06.12.148478 (bioRxiv, 2020).

T1: SpbR (Caulobacter crescentus, UniProt Q9A5X4 1-377)
T1 sequence (looked up): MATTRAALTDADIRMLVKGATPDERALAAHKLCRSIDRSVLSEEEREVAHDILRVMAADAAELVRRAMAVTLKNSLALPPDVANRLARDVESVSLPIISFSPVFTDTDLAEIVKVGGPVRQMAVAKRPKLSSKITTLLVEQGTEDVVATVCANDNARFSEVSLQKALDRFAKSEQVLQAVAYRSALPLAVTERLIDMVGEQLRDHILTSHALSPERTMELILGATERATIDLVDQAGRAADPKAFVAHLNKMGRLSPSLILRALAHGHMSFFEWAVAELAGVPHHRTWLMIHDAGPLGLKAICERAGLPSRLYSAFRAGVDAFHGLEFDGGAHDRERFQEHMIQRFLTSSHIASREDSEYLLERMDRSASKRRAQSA

B1: RcdA (natural protein, Caulobacter crescentus, UniProt A0A0H3CD07 1-169, looked up)
chain: MTEVNAFADTPWRAGVIQDFARSELFDRTFEEGMQLVEETAAYLDGAGRHDSKVLSRNAALGYATESMRLTTRLMQVASWLLVQRAVREGEMPPEAACAEAYRLAEEAPADGPAVEELPFGLMNLLQRSERLYERVRHLDRRMYVESPNEEAPRPVQNQLDRLTAAFGG
modifications: Fluorescin-5-Maleimide on cysteine in the fluorescence polarisation and MST experiments only; unlabelled elsewhere

How the values were obtained:
[1] = target: TacA (Caulobacter crescentus); assay: SEC-MALS
SpbR [2] = target: T1, SpbR; assay: ITC
[3] = target: PopA (Caulobacter crescentus); assay: SEC-MALS
MST = target: the molecule itself; assay: MST
SpbR [4] = target: T1, SpbR; assay: SEC-MALS
SEC-MALS = target: the molecule itself; assay: SEC-MALS

Molecule	stoichiometry N [1]	Kd (SpbR [2])	stoichiometry N (RcdA per PopA) [3]	stoichiometry N (RcdA per TacA chain (1 RcdA : 2 TacA)) [1]	Kd (MST)	stoichiometry N (SpbR [4])	stoichiometry N (SEC-MALS)
TacA (natural protein)	2 subunits	–	–	–	–	–	–
B1	–	3.3 µM	1	0.5	2.9 µM	1 RcdA per SpbR	2 subunits
